Results from PMC8298264, “Function of cofactor Akirin2 in the regulation of gene expression in model human neutrophil-like HL60 cells” (Bioscience Reports, 2021).

B1: sp¦Q02218¦ODO1_HUMAN (protein, UniProt Q02218 41-1023, looked up)
2-oxoglutarate dehydrogenase …: SAPVAAEPFLSGTSSNYVEEMYCAWLENPKSVHKSWDIFFRNTNAGAPPGTAYQSPLPLSRGSLAAVAHAQSLVEAQPNVDKLVEDHLAVQSLIRAYQIRGHHVAQLDPLGILDADLDSSVPADIISSTDKLGFYGLDESDLDKVFHLPTTTFIGGQESALPLREIIRRLEMAYCQHIGVEFMFINDLEQCQWIRQKFETPGIMQFTNEEKRTLLARLVRSTRFEEFLQRKWSSEKRFGLEGCEVLIPALKTIIDKSSENGVDYVIMGMPHRGRLNVLANVIRKELEQIFCQFDSKLEAADEGSGDVKYHLGMYHRRINRVTDRNITLSLVANPSHLEAADPVVMGKTKAEQFYCGDTEGKKVMSILLHGDAAFAGQGIVYETFHLSDLPSYTTHGTVHVVVNNQIGFTTDPRMARSSPYPTDVARVVNAPIFHVNSDDPEAVMYVCKVAAEWRSTFHKDVVVDLVCYRRNGHNEMDEPMFTQPLMYKQIRKQKPVLQKYAELLVSQGVVNQPEYEEEISKYDKICEEAFARSKDEKILHIKHWLDSPWPGFFTLDGQPRSMSCPSTGLTEDILTHIGNVASSVPVENFTIHGGLSRILKTRGEMVKNRTVDWALAEYMAFGSLLKEGIHIRLSGQDVERGTFSHRHHVLHDQNVDKRTCIPMNHLWPNQAPYTVCNSSLSEYGVLGFELGFAMASPNALVLWEAQFGDFHNTAQCIIDQFICPGQAKWVRQNGIVLLLPHGMEGMGPEHSSARPERFLQMCNDDPDVLPDLKEANFDINQLYDCNWVVVNCSTPGNFFHVLRRQILLPFRKPLIIFTPKSLLRHPEARSSFDEMLPGTHFQRVIPEDGPAAQNPENVKRLLFCTGKVYYDLTRERKARDMVGQVAITRIEQLSPFPFDLLLKEVQKYPNAELAWCQEEHKNQGYYDYVKPRLRTTISRAKPVWYAGRDPAAAPATGNKKTHLTELQRLLDTAFDLDVFKNFS
B2: sp¦Q9Y276¦BCS1_HUMAN (protein, UniProt Q9Y276 2-419, looked up)
Mitochondrial chaperone BCS1: PLSDFILALKDNPYFGAGFGLVGVGTALALARKGVQLGLVAFRRHYMITLEVPARDRSYAWLLSWLTRHSTRTQHLSVETSYLQHESGRISTKFEFVPSPGNHFIWYRGKWIRVERSREMQMIDLQTGTPWESVTFTALGTDRKVFFNILEEARELALQQEEGKTVMYTAVGSEWRPFGYPRRRRPLNSVVLQQGLADRIVRDVQEFIDNPKWYTDRGIPYRRGYLLYGPPGCGKSSFITALAGELEHSICLLSLTDSSLSDDRLNHLLSVAPQQSLVLLEDVDAAFLSRDLAVENPVKYQGLGRLTFSGLLNALDGVASTEARIVFMTTNHVDRLDPALIRPGRVDLKEYVGYCSHWQLTQMFQRFYPGQAPSLAENFAEHVLRATNQISPAQVQGYFMLYKNDPVGAIHNAESLRR
B3: sp¦Q9BTT0¦AN32E_HUMAN (protein, UniProt Q9BTT0 1-268, looked up)
Acidic leucine-rich nuclear …: MEMKKKINLELRNRSPEEVTELVLDNCLCVNGEIEGLNDTFKELEFLSMANVELSSLARLPSLNKLRKLELSDNIISGGLEVLAEKCPNLTYLNLSGNKIKDLSTVEALQNLKNLKSLDLFNCEITNLEDYRESIFELLQQITYLDGFDQEDNEAPDSEEEDDEDGDEDDEEEEENEAGPPEGYEEEEEEEEEEDEDEDEDEDEAGSELGEGEEEVGLSYLMKEEIQDEEDDDDYVEEGEEEEEEEEGGLRGEKRKRDAEDDGEEEDD
B4: sp¦Q8WU39¦MZB1_HUMAN (protein, UniProt Q8WU39 23-189, looked up)
Marginal zone B- and …: DRAPLTATAPQLDDEEMYSAHMPAHLRCDACRAVAYQMWQNLAKAETKLHTSNSGGRRELSELVYTDVLDRSCSRNWQDYGVREVDQVKRLTGPGLSEGPEPSISVMVTGGPWPTRLSRTCLHYLGEFGEDQIYEAHQQGRGALEALLCGGPQGACSEKVSATREEL
B5: sp¦Q9NVA1¦UQCC1_HUMAN (protein, UniProt Q9NVA1 1-299, looked up)
Ubiquinol-cytochrome c …: MALLVRVLRNQTSISQWVPVCSRLIPVSPTQGQGDRALSRTSQWPQMSQSRACGGSEQIPGIDIQLNRKYHTTRKLSTTKDSPQPVEEKVGAFTKIIEAMGFTGPLKYSKWKIKIAALRMYTSCVEKTDFEEFFLRCQMPDTFNSWFLITLLHVWMCLVRMKQEGRSGKYMCRIIVHFMWEDVQQRGRVMGVNPYILKKNMILMTNHFYAAILGYDEGILSDDHGLAAALWRTFFNRKCEDPRHLELLVEYVRKQIQYLDSMNGEDLLLTGEVSWRPLVEKNPQSILKPHSPTYNDEGL
B6: sp¦Q9UGP8¦SEC63_HUMAN (protein, UniProt Q9UGP8 1-760, looked up)
Translocation protein SEC63 …: MAGQQFQYDDSGNTFFYFLTSFVGLIVIPATYYLWPRDQNAEQIRLKNIRKVYGRCMWYRLRLLKPQPNIIPTVKKIVLLAGWALFLFLAYKVSKTDREYQEYNPYEVLNLDPGATVAEIKKQYRLLSLKYHPDKGGDEVMFMRIAKAYAALTDEESRKNWEEFGNPDGPQATSFGIALPAWIVDQKNSILVLLVYGLAFMVILPVVVGSWWYRSIRYSGDQILIRTTQIYTYFVYKTRNMDMKRLIMVLAGASEFDPQYNKDATSRPTDNILIPQLIREIGSINLKKNEPPLTCPYSLKARVLLLSHLARMKIPETLEEDQQFMLKKCPALLQEMVNVICQLIVMARNREEREFRAPTLASLENCMKLSQMAVQGLQQFKSPLLQLPHIEEDNLRRVSNHKKYKIKTIQDLVSLKESDRHTLLHFLEDEKYEEVMAVLGSFPYVTMDIKSQVLDDEDSNNITVGSLVTVLVKLTRQTMAEVFEKEQSICAAEEQPAEDGQGETNKNRTKGGWQQKSKGPKKTAKSKKKKPLKKKPTPVLLPQSKQQKQKQANGVVGNEAAVKEDEEEVSDKGSDSEEEETNRDSQSEKDDGSDRDSDREQDEKQNKDDEAEWQELQQSIQRKERALLETKSKITHPVYSLYFPEEKQEWWWLYIADRKEQTLISMPYHVCTLKDTEEVELKFPAPGKPGNYQYTVFLRSDSYMGLDQIKPLKLEVHEAKPVPENHPQWDTAIEGDEDQEDSEGFEDSFEEEEEEEEDDD
B7: sp¦O96011¦PX11B_HUMAN (protein, UniProt O96011 1-259, looked up)
Peroxisomal membrane protein …: MDAWVRFSAQSQARERLCRAAQYACSLLGHALQRHGASPELQKQIRQLESHLSLGRKLLRLGNSADALESAKRAVHLSDVVLRFCITVSHLNRALYFACDNVLWAGKSGLAPRVDQEKWAQRSFRYYLFSLIMNLSRDAYEIRLLMEQESSACSRRLKGSGGGVPGGSETGGLGGPGTPGGGLPQLALKLRLQVLLLARVLRGHPPLLLDVVRNACDLFIPLDKLGLWRCGPGIVGLCGLVSSILSILTLIYPWLRLKP
B8: sp¦O75746¦CMC1_HUMAN (protein, UniProt O75746 2-678, looked up)
Electrogenic …: AVKVQTTKRGDPHELRNIFLQYASTEVDGERYMTPEDFVQRYLGLYNDPNSNPKIVQLLAGVADQTKDGLISYQEFLAFESVLCAPDSMFIVAFQLFDKSGNGEVTFENVKEIFGQTIIHHHIPFNWDCEFIRLHFGHNRKKHLNYTEFTQFLQELQLEHARQAFALKDKSKSGMISGLDFSDIMVTIRSHMLTPFVEENLVSAAGGSISHQVSFSYFNAFNSLLNNMELVRKIYSTLAGTRKDVEVTKEEFAQSAIRYGQVTPLEIDILYQLADLYNASGRLTLADIERIAPLAEGALPYNLAELQRQQSPGLGRPIWLQIAESAYRFTLGSVAGAVGATAVYPIDLVKTRMQNQRGSGSVVGELMYKNSFDCFKKVLRYEGFFGLYRGLIPQLIGVAPEKAIKLTVNDFVRDKFTRRDGSVPLPAEVLAGGCAGGSQVIFTNPLEIVKIRLQVAGEITTGPRVSALNVLRDLGIFGLYKGAKACFLRDIPFSAIYFPVYAHCKLLLADENGHVGGLNLLAAGAMAGVPAASLVTPADVIKTRLQVAARAGQTTYSGVIDCFRKILREEGPSAFWKGTAARVFRSSPQFGVTLVTYELLQRWFYIDFGGLKPAGSEPTPKSRIADLPPANPDHIGGYRLATATFAGIENKFGLYLPKFKSPSVAVVQPKAAVAATQ

These molecules were tested on human HL60 cells (assay: SWATH-MS proteomics, differential protein representation, akirin2 KO vs WT HL60 cells). Settings: KO vs WT HL60 cells; sheet "Under-represented in KO".
Format: cell-based
How it was run: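 Three biological replicates per genotype; 150 µg protein FASP/trypsin digested; IDA library (3 µg digest); SWATH variable windows, 5 µg/sample, 3.6 s cycle; gradient 5–30% B 120 min then 30–60% B 15 min; 1% global FDR; TAS normalization.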

Molecule	Fold Change	Log (Fold Change)
B1	0.5221	-0.2822
B2	0.5207	-0.2834
B3	0.5286	-0.2769
B4	0.5261	-0.279
B5	0.5349	-0.2718
B6	0.5228	-0.2816
B7	0.5344	-0.2721
B8	0.5201	-0.2839
